Experimental data reported in patent publication US20260265403A1 (TJ BIOPHARMA SHANGHAI, published 2026).
Residue numbers refer to the chain shown, from its start.

T1: human CD24 on cells (human, UniProt P25063 27-59)
T1 chain (looked up): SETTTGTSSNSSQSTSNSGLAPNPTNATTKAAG

B1: 80-F10A6, IgG4, Kappa (antibody, V domains shown)
VH: EVQLQQSGPVLVNPGASVKISCKASGYSFTGYYMNWVKQSPEKSLEWIGEVNPITGDTTYSQNFKAKTTLTVDRSSSTAYMQLKSLTSEDSAVYYCTRRDYGTSLDYWGQGTTLTVSS
VL: DVQITQSPSYLAASPGETITIHCRASKSISRYLAWYQEKPGKINTLLIYAGSTLHLGIPSRFSGSGSGTDFTLTISSLELEDFAMYYCQQHNEYPITFGAGTKLELK
B2: 59-G9D7, IgG1, Kappa (antibody, V domains shown)
VH: QVQLQQPGADLVKPGASVKLSCKASGYTVTTYWMHWVRQRPGRGLEWIGRIDPNSGETKYSEKFKNKATLTVDRPSSTAYMQLSSLTFEDSAVYFCAIYYYLNNFLFDYWGQGTTLTVSS
VL: ENVLTQSPAIMSASPGEKVTMTCRASSSVSSSYLHWYQKKSGASPKLWIYSTSNLASGVPARFSGSGSGTSYSLTISSVEAEDAATYYCQQYSGYPLTFGAGTKLELK
B3: 62-F7E9, IgG1, Kappa (antibody, V domains shown)
VH: QVQLQQPGAELVKPGASVKLSCKASGYTSTSYWLHWVKQRPGRGLEWIGRIDPNSGETKFNEKFKSQATLTVDKPSSTAYMQLNSLTSEDSAVYYCALYYYGSILFDYWGQGTTLTVSS
VL: B2 VL with A25T, S28I, V29I, S32G, Y33F, K39Q, Y95H
B4: 45-H1E4, IgG1, Kappa (antibody, V domains shown)
VH: QIQLVQSGPELKKPGETVKISCKASGYTFTTYGMSWMKQAPGKGLKWMGWINTYSGVPAYADDFKGRFAFSLDTSASTAYLQINNLKNEDTATYFCARSGYPWSPHSYSTDYWGQGISVTVSS
VL: DVLLTQTPLSLPVSLGDQASISCKSSQSIVHSNGNTYLEWYLQKPGQSPKRLIYKVSNRFSGVPDRFSGSGSGTDFTLKISRVEAEDLGVYYCFQGSHVPWTFGGGTKLEIK
B5: 69-D5G10, IgG4, Kappa (antibody, V domains shown)
VH: EVKLEESGGGLVQPGGSMKLSCVVSGLTFSNHWMNWVRQSPEKGLEWVAQIQLKSDNYATRFAESVKGRFTISRDDSKSDVYLQMNNLRTEDTGIYYCTTGTDYWGQGTTLTVSS
VL: not shown
B6: 69-D5G10, IgG1, Kappa (antibody, V domains shown)
VH: B5 VH
VL: not shown
B7: 74-H4C6 (4451), IgG1, Kappa (antibody, V domains shown)
VH: EVQLQQSGPELVKPGASVKISCKASGYDFTGYHMNWVKQSPEKSLEWIGEINPITSDKTFNQKFKSKATLTVDRSSSTAYMYLKSLTSEDSAVYYCARRDYGTSLDYWGQGTTLTVSS
VL: DVQITQSPSYLAASPGETITIYCRASKSISKYLAWYQEKPEKTNRLLIYAGSTLHSGIPSRFRGSGSGKDFTLTVSGLEPEDFAMYYCQQHNEYPITFGAGTKLELK
B8: 70-F4E5, IgG1, Kappa (antibody, V domains shown)
VH: EVNLEESGGGLVQPGGSRQLSCVASGLTFSKHWMNWVRQSPDKGLEWVAQIQLKSDNYAIRYVDSVKGRFTISRDDSENTVYLQMNNLRAEDTGIYYCTTGTDYWGQGTTLTVSS
VL: not shown
B9: 70-F4E5, IgG4, Kappa (antibody, V domains shown)
VH: B8 VH
VL: not shown
B10: 63-C5A5, IgG4, Kappa (antibody, V domains shown)
VH: EVNLEESGGGLVQPGGSMEFSCVASGLTFSDHWMNWVRQSPEKGLEWVAQIQLKSDNYAIRYVESVKGRFSISRDDSKSSVYLQMNNLRAEDSGIYYCTTGTDYWGQGTTLTVSS
VL: not shown
B11: 63-C5A5, IgG1, Kappa (antibody, V domains shown)
VH: B10 VH
VL: not shown
B12: 66-D1B10, IgG1, Kappa (antibody, V domains shown)
VH: EVRLEESGGGFVQPGGSMKLSCVASGLTFPNHWMNWVRQSPERGLAWVAQIQLKSDNYATRYVESVKGRFTISRDDSESTVYLQMNNLRAEDTGIYYCTTGTDYWGQGTTLTVSS
VL: not shown
B13: 76-F8C6, IgG1, Kappa (antibody, V domains shown)
VH: B12 VH with R3K, F11L, L27F, P30T, H32S, A46D, E78K, S79N, T80S, G106S
VL: not shown
B14: 65-F3C7, IgG1, Kappa (antibody, V domains shown)
VH: B12 VH with P41L, E78K, A90P
VL: not shown
B15: 65-F3C7, IgG4, Kappa (antibody, V domains shown)
VH: B12 VH with P41L, E78K, A90P
VL: not shown

Biological target: T1, human CD24 on cells
Test: cell-based or functional assay

EC50 of Phagocytosis assay, IgG4, Kappa; HEK293-CD24 | EC50 of Phagocytosis assay, IgG4, Kappa; MCF-7 | EC50 of Phagocytosis assay, IgG4, Kappa; NALM6 | EC50 of Phagocytosis assay, IgG4, Kappa; OVCAR3 | EC50 of Phagocytosis assay, IgG1, Kappa; HEK293-CD24 | EC50 of Phagocytosis assay, IgG1, Kappa; MCF-7 | EC50 of Phagocytosis assay, IgG1, Kappa; NALM6 | EC50 of Phagocytosis assay, IgG1, Kappa; OVCAR3 | Binder
0.86 µg/mL | 2.4 µg/mL | 1.05 µg/mL | 0.37 µg/mL |  |  |  |  | B1
 |  |  |  | 4.76 µg/mL | 2.05 µg/mL | 7.9 µg/mL | 0.97 µg/mL | B2
 |  |  |  | 5.15 µg/mL | 2.08 µg/mL | 8.62 µg/mL | 1.63 µg/mL | B3
 |  |  |  | 0.29 µg/mL | 1.02 µg/mL | 1.25 µg/mL | 0.59 µg/mL | B4
0.37 µg/mL | 1.02 µg/mL | 0.55 µg/mL | 0.51 µg/mL |  |  |  |  | B5
 |  |  |  | 0.22 µg/mL | 0.42 µg/mL | 0.43 µg/mL | 8.44 µg/mL | B6
 |  |  |  | 0.05 µg/mL | 0.28 µg/mL | 0.19 µg/mL | 0.1 µg/mL | B7
 |  |  |  | 0.04 µg/mL | 0.7 µg/mL | 0.61 µg/mL | 0.15 µg/mL | B8
0.21 µg/mL | 0.84 µg/mL | 0.63 µg/mL | 5.61 µg/mL |  |  |  |  | B9
0.46 µg/mL | 24.7 µg/mL | 6.58 µg/mL | 1.62 µg/mL |  |  |  |  | B10
 |  |  |  | 0.4 µg/mL | 0.74 µg/mL | 0.7 µg/mL | 8.48 µg/mL | B11
 |  |  |  | 7.46 µg/mL | 0.84 µg/mL | 2.48 µg/mL | 0.73 µg/mL | B12
 |  |  |  | 0.09 µg/mL | 0.47 µg/mL | 0.42 µg/mL | 0.17 µg/mL | B13
 |  |  |  | 0.75 µg/mL | 0.4 µg/mL | 2.01 µg/mL | 0.23 µg/mL | B14
0.09 µg/mL | 2.25 µg/mL | 6.01 µg/mL | 5.74 µg/mL |  |  |  |  | B15
